Source: patent publication US20240025996A1 (FRED HUTCHINSON CANCER CENTER, published 2024)

Molecular target: T1, soluble ROR1 ectodomain (UniProt Q01973 30-406)
T1 construct: extracellular domain; also called ROR1-A647
Experiment: method not stated in the legend (FIGS. 1A-1C)

T1 sequence (Q01973 30-406 limits assumed): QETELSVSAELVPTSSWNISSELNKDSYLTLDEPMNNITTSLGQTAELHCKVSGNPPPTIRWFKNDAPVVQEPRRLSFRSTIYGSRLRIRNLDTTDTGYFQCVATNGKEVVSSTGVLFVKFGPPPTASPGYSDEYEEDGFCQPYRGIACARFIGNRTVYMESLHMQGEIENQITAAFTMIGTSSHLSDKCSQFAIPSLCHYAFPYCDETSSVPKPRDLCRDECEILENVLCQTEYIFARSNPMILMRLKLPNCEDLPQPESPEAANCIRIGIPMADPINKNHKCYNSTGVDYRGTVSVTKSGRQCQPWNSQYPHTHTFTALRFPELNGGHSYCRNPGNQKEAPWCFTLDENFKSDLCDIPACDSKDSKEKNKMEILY

B1: Nb14 WT (VHH)
VHH: QVKLVQSGGGLVQTGGSLRLSCAASEITFDMYSMGWYREAPGKARDAVASITNRGNTYYADSVKGRFTISRDNAKKTMYLQMNSLKPEDTAVYYCNVYRTGFSDYWGQGTQVTVSS
notes: also called free Nb14
Kd: 2 nM

B2: Nb11 WT (VHH)
VHH: QVKLVQSGGGLVQAGGSLRLSCAASGSIFSSASMGWYRQAPGKPREQVASITRDGNTYYEDDVKGRFTISRDNARSTGYLQMNSLTPEDTGVYYCNVYQLGFYDKWGQGTQVIVSS
notes: also called free Nb11
Kd: 2 nM
